Data on 142 substances can be found in the supplement of paper PMC12042874.

± gives the uncertainty stated by the source.

The series in a line: amyloid nucleation score (Sup35N fusion, yeast selection) (log enrichment); library NNK1; higher = more nucleation; inactive = no reads after selection. A digest of the protocol:
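The nucleation score is the DiMSum log enrichment of output over input reads, centred on the mode score of non-aggregating sequences. Only sequences with 100 or more input reads were scored, using Illumina sequencing of input and output plasmid inserts. Psi-negative yeast expressing Sup35N fused to peptides of 20 random codons were induced 24 hours with 100 μM copper sulfate and grown 7 days at 30°C on medium lacking adenine and uracil.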
For the substance SILCESFVGCLDAMRDRVYY, the amyloid nucleation score was -0.036 ± 0.61.

Take SIQPIW: the amyloid nucleation score was 0.952 ± 0.5.

SIVNVDVALSHLCSYQRSRM gave an amyloid nucleation score of 4.11 ± 0.1.

The substance SIYALVSCSVFVTAMDAVQA came in with an amyloid nucleation score of 4.17 ± 0.061.

As to SIYKSSEREVVY, the amyloid nucleation score entry is “inactive”.

The substance SKCAVQCLVG yielded an amyloid nucleation score of 0.986 ± 0.2.

With SKCDQSIRYSRGNETPLDSL, the amyloid nucleation score was 0.274 ± 0.83.

SKFTYRV had an amyloid nucleation score of -0.302 ± 0.38.

For the substance SKFVT, the amyloid nucleation score was found to be 1.2 ± 0.9.

Substance SKHRSIYFIPLSHVESVVVW showed an amyloid nucleation score of -0.192 ± 1.1.

Turning to SKIHYMF, the amyloid nucleation score was -0.942 ± 0.57.

Consider SKSFDRKMVC, for which the amyloid nucleation score is -0.092 ± 0.33.

SKSGLDDGHDA yielded an amyloid nucleation score of -0.335 ± 0.23.

In turn, SKTSEGLLLYVISYRNYYGP returned an amyloid nucleation score of 0.671 ± 0.4.

SKTVVTKVKLSIWAGRVLRF registered an amyloid nucleation score of -1.14 ± 1.9.

SKWLIRGCL: the amyloid nucleation score worked out at 1.6 ± 0.21.

In turn, SLAGFCMQPRTLLV showed an amyloid nucleation score of 0.86 ± 0.83.

SLAQFRWVV yielded an amyloid nucleation score of 1.52 ± 0.13.

SLCVWDSFNPERTGLFMRWI registered an amyloid nucleation score of 0.99 ± 0.93.

In turn, SLDYKFSFLSQ returned an amyloid nucleation score of 6.963 ± 0.045.

Turning to SLEDEEQLYLANSIREGLAV, the amyloid nucleation score came out at 0.76 ± 0.51.

Consider SLEVRNRCNVYVAAANLLVM, for which the amyloid nucleation score was found to be 2.76 ± 0.095.

In the case of SLEWFSRWSN, the amyloid nucleation score is 1.15 ± 0.37.

SLFEFWSDNFNQEQ showed an amyloid nucleation score of 1.49 ± 0.76.

SLGFIFTEILYIFIVAWFII: the amyloid nucleation score came to 0.198 ± 0.47.

Substance SLILFV showed an amyloid nucleation score of 0.856 ± 0.45.

SLINTRVPPLENNAC had an amyloid nucleation score of -0.443 ± 0.51.

In turn, SLITVSHMPWGCT yielded an amyloid nucleation score of 0.342 ± 0.36.

Substance SLIYGILCKINQ registered an amyloid nucleation score of -0.064 ± 0.44.

In turn, SLLLLMGALSHGMRLFKGSS registered an amyloid nucleation score of 0.268 ± 0.82.

Substance SLLPDPHYMTQVW gave an amyloid nucleation score of -0.559 ± 0.55.

SLLTYQ showed an amyloid nucleation score of 0.757 ± 0.27.

With SLMTQDCNFRYYLKRCI, the amyloid nucleation score worked out at 0.894 ± 0.63.

Regarding SLNFTDHIYYMDGLLIAVVE, the amyloid nucleation score was found to be 0.358 ± 0.32.

As to SLNVNLMSRVYSSAREGGVS, the amyloid nucleation score worked out at 1.73 ± 0.2.

SLPFVTLLNAMCVCSGANCL yielded an amyloid nucleation score of 8.449 ± 0.045.

For the substance SLQISCQWYAVWGHMLLSDF, the amyloid nucleation score entry was “inactive”.

SLQPVYAATCSSFHYSFFAG yielded an amyloid nucleation score of 4.89 ± 0.074.

Regarding SLRCVPVVSMRVRSDSSLYK, the amyloid nucleation score stood at 0.529 ± 0.9.

For SLRKKVSSVCSC, the amyloid nucleation score worked out at 0.838 ± 0.54.

With SLRWSQSPFYFVTSIGRQGG, the amyloid nucleation score is 0.585 ± 0.55.

In the case of SLSFSCSVKV, the amyloid nucleation score is -0.149 ± 0.54.

SLSMDIAVRSTTNRHANNIL: the amyloid nucleation score is -0.494 ± 1.1.

In turn, SLSMLTARGLILNMCNGMRF had an amyloid nucleation score of 1.52 ± 0.84.

SLSRD gave an amyloid nucleation score of -0.393 ± 0.41.

For SLTYCHSIIKDLETLIFRSK, the amyloid nucleation score amounted to 0.283 ± 0.61.

As for SLVSPRCSKMMFWGLPGVMM, the amyloid nucleation score was 0.088 ± 0.29.

The substance SLVVVGCWLAANQESK came in with an amyloid nucleation score of 1.28 ± 0.33.

With SLYCNGVRMPLAETSGNEHL, the amyloid nucleation score was -0.091 ± 0.43.

In the case of SLYNTLEVNDNKHRVNFLVA, the amyloid nucleation score was 0.652 ± 0.58.

The substance SLYTKWKSILPNWVFVCIAL came in with an amyloid nucleation score of -1.35 ± 0.38.

With SMDNYIVNSSTVWPSSFSLK, the amyloid nucleation score is 4.73 ± 0.075.

Consider SMEGLMSLMHSRISRFVFRV, for which the amyloid nucleation score came to 0.168 ± 1.2.

In turn, SMHHGFYCDVWLGGVILRCK gave an amyloid nucleation score of 0.047 ± 0.56.

On to SMHSLGSHEGSRRIPGLSFD, for which the amyloid nucleation score was -0.007 ± 1.2.

Take SMIPSNGTRLMLDSLTKYID: the amyloid nucleation score result is “inactive”.

SMNHVFYYFIRMWTSM showed an amyloid nucleation score of 0.156 ± 0.63.

Consider SMRCKSYGCC, for which the amyloid nucleation score was determined as 0.3 ± 0.59.

For SMTSWWVRGLLPVNGD, the amyloid nucleation score was 2.53 ± 0.13.

With SMVPQTMGVSQESRCYAGSC, the amyloid nucleation score is -0.215 ± 0.65.

For SMYSNRHHDWFR, the amyloid nucleation score is -0.412 ± 1.4.

Consider SNAIVTFIVGVAAPGTYYS, for which the amyloid nucleation score turned out to be 6.47 ± 0.062.

The substance SNCERAIAKSHLVARPFSVS gave an amyloid nucleation score of 0.16 ± 0.73.

Regarding SNDVIVWYPIDEGHAGCAYL, the amyloid nucleation score was found to be 1.75 ± 0.66.

Turning to SNECLRNGAFYDCPVREAWM, the amyloid nucleation score is -0.346 ± 0.27.

SNEYLCYYMSTNA came in with an amyloid nucleation score of -0.345 ± 0.39.

Turning to SNFFVRFNTVTNFSMWDEYY, the amyloid nucleation score result was “inactive”.

Substance SNFINLGRWFRIDL yielded an amyloid nucleation score of 0.377 ± 0.53.

For the substance SNHDNFYPVVLCMESKYNIE, the amyloid nucleation score amounted to 0.302 ± 0.34.

For the substance SNKSSSDIDCVYLENCSTSG, the amyloid nucleation score is 1.43 ± 0.36.

Substance SNLLGSMFLLCHQIKHRPEI showed an amyloid nucleation score of -0.764 ± 0.34.

Substance SNMRRASFNHGGRWNSGRGN displayed an amyloid nucleation score of -1.1 ± 2.4.

SNNELSTMTRL showed an amyloid nucleation score of -1.01 ± 1.2.

For the substance SNSFYREVNWGNRT, the amyloid nucleation score was determined as 0.216 ± 0.57.

Take SNSSLECYCMNVVRFHLGLS: the amyloid nucleation score amounted to 0.735 ± 0.18.

As for SNSVRNRRIFKKSTVRH, the amyloid nucleation score is -0.055 ± 0.36.

Substance SNVHCPWKL yielded an amyloid nucleation score of -1.74 ± 2.7.

Substance SNWFCGFYDWISVLFNSLKL displayed an amyloid nucleation score of 1.42 ± 0.65.

Substance SPKPYFSRKYVIKIHKRS gave an amyloid nucleation score of -1.54 ± 1.4.

SPKSPPL had an amyloid nucleation score of -0.053 ± 0.62.

For SPPFQSELMLPLRLSGLVSS, the amyloid nucleation score was 1.28 ± 0.93.

SPPMSKLVMATRVLKCMDPS gave an amyloid nucleation score of 0.086 ± 0.79.

SPRAWRMGHGLVGWVMEKKG came in with an amyloid nucleation score of 0.476 ± 1.1.

SPRLAGMVSMVDKCRRASGR displayed an amyloid nucleation score of 0.097 ± 0.33.

Substance SPTTKCLPSERSSINCNLMT came in with an amyloid nucleation score of 0.311 ± 0.68.

Regarding SQDGISMMLGMSGWRGHASV, the amyloid nucleation score was 0.659 ± 1.

SQFISK registered an amyloid nucleation score of 1.14 ± 0.52.

For the substance SQLARLLFIAGIVPTRARVI, the amyloid nucleation score was found to be 0.144 ± 0.64.

SQVLGSLLFRSPRVWICVAG gave an amyloid nucleation score of -0.969 ± 2.1.

Consider SRAAFVSSKPYMSWGVTYVH, for which the amyloid nucleation score is -0.792 ± 1.3.

For the substance SRDASLDRPSRRV, the amyloid nucleation score is -0.465 ± 0.49.

Substance SRFKTDYTG yielded an amyloid nucleation score of -0.492 ± 0.68.

SRGLFCWWRSTWRGVL had an amyloid nucleation score of -1.28 ± 2.4.

As to SRKKKIVITEPNHSSRHQSV, the amyloid nucleation score is 0.003 ± 0.86.

SRKVKVWPVGLRRLVMFFVN returned an amyloid nucleation score of 1.43 ± 0.53.

Turning to SRLVCLVNYVGGGYIETITL, the amyloid nucleation score worked out at 4.02 ± 0.1.

For SRNLGMYHMYFKFPWCMNPM, the amyloid nucleation score was -0.15 ± 0.46.

SRNVVLPL came in with an amyloid nucleation score of 0.195 ± 0.43.

In turn, SRPDTQPEEAQ gave an amyloid nucleation score of -0.02 ± 0.21.

In turn, SRPQLDKTLFGLVA returned an amyloid nucleation score of 0.771 ± 0.62.

SRRYLRVGCKVNVHTFGLYL came in with an amyloid nucleation score of -0.502 ± 1.

For SRVISLPVLKI, the amyloid nucleation score was -0.302 ± 0.9.

Regarding SRVLRPS, the amyloid nucleation score was -0.174 ± 0.4.

SRVSLRRQCYVRVNGLCLYI returned an amyloid nucleation score of 1.84 ± 0.3.

As to SRVSYPGFYYGCPVFQYYSA, the amyloid nucleation score was found to be 7.589 ± 0.053.

Regarding SSFSLGSTLF, the amyloid nucleation score turned out to be 0.597 ± 0.52.

On to SSFSVVFDSHVSS, for which the amyloid nucleation score turned out to be 0.382 ± 1.4.

The substance SSGHSVRVDNKTGVWVWPVG came in with an amyloid nucleation score of -0.329 ± 1.6.

For the substance SSGSMCTLFSSE, the amyloid nucleation score is 1.75 ± 0.57.

Substance SSIESSYGKFLRGIVSESIK came in with an amyloid nucleation score of 0.485 ± 0.55.

SSIMHSG: the amyloid nucleation score is 0.925 ± 1.1.

For SSISV, the amyloid nucleation score came out at 2.35 ± 0.53.

With SSLSSMLRGSWAGYVLNCL, the amyloid nucleation score result is “inactive”.

Take SSLVVWNTQSSTLMTLLSYS: the amyloid nucleation score is -0.915 ± 0.49.

In turn, SSNFSPLTIVVYNFCI displayed an amyloid nucleation score of 7.744 ± 0.051.

As to SSRFVWIASKINILYNFQTY, the amyloid nucleation score is -0.403 ± 0.7.

In the case of SSSKGSMENYISYRSL, the amyloid nucleation score was -0.703 ± 0.32.

For the substance SSSRNLVSSRCLQVYLPMHA, the amyloid nucleation score came to 0.986 ± 0.71.

The substance SSSSML showed an amyloid nucleation score of -0.202 ± 0.47.

SSSWTTCY gave an amyloid nucleation score of 2.15 ± 0.1.

In the case of SSTAEDTMWARGSNKTLYQS, the amyloid nucleation score was found to be 0.148 ± 0.44.

Substance SSTFCVAQYQSYWLCEVKWV gave an amyloid nucleation score of 0.086 ± 1.4.

Substance SSTILQLCSPNRRLRSTKLG yielded an amyloid nucleation score of 1.97 ± 0.7.

Substance SSVFCFIGKASEAVILAIYC came in with an amyloid nucleation score of -0.052 ± 0.79.

SSYFTKM returned an amyloid nucleation score of 0.548 ± 0.34.

SSYRNWYRRSGDQLYYLEP: the amyloid nucleation score turned out to be 0.876 ± 0.42.

For the substance SSYVPSCCYWAVWFCVRGKY, the amyloid nucleation score turned out to be 1.58 ± 0.46.

Turning to STFFSY, the amyloid nucleation score result is “inactive”.

As to STFIDGSGIVALHCNSGCLA, the amyloid nucleation score is 0.86 ± 0.73.

Take STHNTRFGVY: the amyloid nucleation score is 0.167 ± 0.24.

In turn, STIMMF gave an amyloid nucleation score of 0.289 ± 0.52.

As to STLDLLCYFRREADQTINKR, the amyloid nucleation score is 0.336 ± 0.36.

The substance STNLMKMWLFHLRDTAR showed an amyloid nucleation score of 0.583 ± 0.37.

In turn, STRICWGTCFDKLDMGGSR registered an amyloid nucleation score of 1.95 ± 0.34.

Turning to STWLLGQRRYPRHKERGRAR, the amyloid nucleation score was 0.101 ± 0.35.

Turning to SVASRACW, the amyloid nucleation score stood at 0.139 ± 0.8.

For SVGGVAGEF, the amyloid nucleation score was -0.087 ± 0.96.

For the substance SVGMVLFLGCGLLLFRFLCG, the amyloid nucleation score was -0.359 ± 1.2.

The substance SVKSIRCLCSVVEYKETGHR returned an amyloid nucleation score of 0.438 ± 0.34.

SVLVWADLCHDTEA displayed an amyloid nucleation score of 0.42 ± 0.84.

SVNRCGVYFTEGFFSLRWS: the amyloid nucleation score is 1.13 ± 0.25.

As to SVPITLIGALGVKM, the amyloid nucleation score was 0.177 ± 0.57.
